Experimental data reported in paper PMC8959893, “T-Cell Responses to Immunodominant Listeria Epitopes Limit Vaccine-Directed Responses to the Colorectal Cancer Antigen, Guanylyl Cyclase C” (Frontiers in Immunology, 2022).

Molecular target: T1, peptide-H-2K^d complex (Mus musculus, UniProt P01902)
T1 construct: expressed in transfected cells; host or cells: RMA-S (TAP-deficient), stably expressing H-2K^d; provided by Dr. Sean Murphy (University of Washington)
T1 sequence (P01902 22-368): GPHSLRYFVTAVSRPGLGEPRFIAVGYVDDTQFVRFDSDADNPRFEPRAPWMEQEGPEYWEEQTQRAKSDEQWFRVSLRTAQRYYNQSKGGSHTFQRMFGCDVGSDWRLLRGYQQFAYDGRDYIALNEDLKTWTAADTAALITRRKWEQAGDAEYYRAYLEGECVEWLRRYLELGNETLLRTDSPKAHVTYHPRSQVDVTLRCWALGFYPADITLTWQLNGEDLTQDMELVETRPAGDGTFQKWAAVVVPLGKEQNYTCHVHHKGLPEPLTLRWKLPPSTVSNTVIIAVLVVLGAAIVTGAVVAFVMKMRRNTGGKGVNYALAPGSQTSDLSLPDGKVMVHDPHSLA
T1 sequence (P01887 21-119 partner): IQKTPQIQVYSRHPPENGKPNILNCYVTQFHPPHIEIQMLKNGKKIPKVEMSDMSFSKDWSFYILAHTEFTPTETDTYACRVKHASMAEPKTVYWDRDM
Type: cell-based
Conditions: for half-life (t1/2) of peptide-H-2K^d complex: Figure 4D, flow cytometry MFI, nonlinear regression of two experiments
Experimental: As previously described ([27]), RMA-S-H-2K^d cells were incubated overnight at 26°C with 30 ug/mL of each peptide. In the morning, cells were incubated 2 h at 37°C, washed 3x with PBS to remove unbound peptide, and incubated an additional 2, 4, or 6 h at 37°C. Cells were then stained with anti-H-2K^d-PE antibody (Invitrogen, Clone SF1-1.1.1), and surface H-2K^d was quantified as mean fluorescence intensity (MFI) by flow cytometry. The percent change in surface peptide-H-2K^d complexes was calculated using the formula, MFI^peptide−MFI^no peptide/MFI^0 hrs−MFI^no peptide×100 ([28]). The t1/2 for the peptide-MHC complex was calculated by nonlinear regression.

[1] = RMA-S-H-2K^d cells, 30 ug/mL peptide overnight at 26°C, 2 h at 37°C, washed, additional 2, 4 or 6 h at 37°C

Substance | half-life (t1/2) of peptide-H-2K^d complex [1] | Dissociation from MHC, fold faster than Lm-derived peptide-H-2K^d complexes (Figure 3, stated in Discussion) | t1/2 of peptide-H-2K^d complex (Figure 3C, RMA-S-H-2K^d cells, 30 ug/mL peptide overnight at 26°C, 2 h at 37°C, washed, additional 2, 4 or 6 h at 37°C, anti-H-2K^d-PE MFI by flow cytometry, nonlinear regression, representative of two experiments)
GUCY2CF255Y: GUCY2C254-262 peptide variant with F255Y point mutation at an H-2K^d anchoring residue (SYYDVKGDL; UniProt Q3UWA6 254-262, looked up, variant F255Y) | 8.3 h |  | 
GUCY2C254-262: dominant H-2K^d-restricted CD8+ T-cell epitope of mouse guanylyl cyclase C, residues 254-262 (SFYDVKGDL; UniProt Q3UWA6 254-262, looked up, fragment) | 2.1 h | > 5 fold | 1.8 h
GUCY2CL262I: GUCY2C254-262 peptide variant with L262I point mutation at an H-2K^d anchoring residue (SFYDVKGDI; UniProt Q3UWA6 254-262, looked up, variant L262I) | 1.0 h |  | 
